B1: Nuclear polyadenylated RNA-binding protein NAB2 (Saccharomyces cerevisiae), P32505 (parent)
chain: MSQEQYTENLKVIVAEKLAGIPNFNEDIKYVAEYIVLLIVNGGTVESVVDELASLFDSVSRDTLANVVQTAFFALEALQQGESAENIVSKIRMMNAQSLGQSDIAQQQQQQQQQQQPDIAQQQPQQQPQQQPQQQPQQQPQQQPQQQPQQQPQQQPQLQPLQPQLGTQNAMQTDAPATPSPISAFSGVVNAAAPPQFAPVDNSQRFTQRGGGAVGKNRRGGRGGNRGGRNNNSTRFNPLAKALGMAGESNMNFTPTKKEGRCRLFPHCPLGRSCPHAHPTKVCNEYPNCPKPPGTCEFLHPNEDEELMKEMERTREEFQKRKADLLAAKRKPVQTGIVLCKFGALCSNPSCPFGHPTPANEDAKVIDLMWCDKNLTCDNPECRKAHSSLSKIKEVKPISQKKAAPPPVEKSLEQCKFGTHCTNKRCKYRHARSHIMCREGANCTRIDCLFGHPINEDCRFGVNCKNIYCLFRHPPGRVLPEKKGAAPNSNVPTNERPFALPENAIIENAPPQTSFTHQEQDTEMN
partner: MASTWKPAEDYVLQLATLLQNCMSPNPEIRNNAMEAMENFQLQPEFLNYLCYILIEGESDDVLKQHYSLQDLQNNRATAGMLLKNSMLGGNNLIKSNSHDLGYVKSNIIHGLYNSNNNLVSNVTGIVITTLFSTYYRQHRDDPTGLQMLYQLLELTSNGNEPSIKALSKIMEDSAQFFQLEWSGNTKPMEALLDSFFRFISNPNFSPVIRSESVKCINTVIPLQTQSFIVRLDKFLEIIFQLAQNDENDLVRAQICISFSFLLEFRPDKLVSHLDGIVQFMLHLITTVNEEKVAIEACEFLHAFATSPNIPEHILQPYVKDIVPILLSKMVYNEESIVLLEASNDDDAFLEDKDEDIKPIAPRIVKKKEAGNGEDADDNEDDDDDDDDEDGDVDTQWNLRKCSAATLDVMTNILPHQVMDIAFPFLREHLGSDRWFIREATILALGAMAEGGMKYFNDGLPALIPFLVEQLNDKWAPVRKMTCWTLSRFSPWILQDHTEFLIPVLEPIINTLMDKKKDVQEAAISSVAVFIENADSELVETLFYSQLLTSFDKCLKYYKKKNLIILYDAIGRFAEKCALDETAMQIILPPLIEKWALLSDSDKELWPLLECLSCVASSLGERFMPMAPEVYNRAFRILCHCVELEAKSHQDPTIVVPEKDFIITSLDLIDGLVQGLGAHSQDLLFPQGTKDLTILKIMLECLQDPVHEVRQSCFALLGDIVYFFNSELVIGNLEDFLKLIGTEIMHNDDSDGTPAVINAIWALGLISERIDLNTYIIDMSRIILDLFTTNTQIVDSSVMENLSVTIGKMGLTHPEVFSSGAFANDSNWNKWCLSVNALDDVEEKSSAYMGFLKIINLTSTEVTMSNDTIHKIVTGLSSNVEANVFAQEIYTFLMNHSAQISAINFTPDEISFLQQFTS
B2: Nuclear polyadenylated RNA-binding protein 4 (Saccharomyces cerevisiae), Q99383 (parent)
chain: MSSDEEDFNDIYGDDKPTTTEEVKKEEEQNKAGSGTSQLDQLAALQALSSSLNKLNNPNSNNSSSNNSNQDTSSSKQDGTANDKEGSNEDTKNEKKQESATSANANANASSAGPSGLPWEQLQQTMSQFQQPSSQSPPQQQVTQTKEERSKADLSKESCKMFIGGLNWDTTEDNLREYFGKYGTVTDLKIMKDPATGRSRGFGFLSFEKPSSVDEVVKTQHILDGKVIDPKRAIPRDEQDKTGKIFVGGIGPDVRPKEFEEFFSQWGTIIDAQLMLDKDTGQSRGFGFVTYDSADAVDRVCQNKFIDFKDRKIEIKRAEPRHMQQKSSNNGGNNGGNNMNRRGGNFGNQGDFNQMYQNPMMGGYNPMMNPQAMTDYYQKMQEYYQQMQKQTGMDYTQMYQQQMQQMAMMMPGFAMPPNAMTLNQPQQDSNATQGSPAPSDSDNNKSNDVQTIGNTSNTDSGSPPLNLPNGPKGPSQYNDDHNSGYGYNRDRGDRDRNDRDRDYNHRSGGNHRRNGRGGRGGYNRRNNGYHPYNR
partner: B1 partner

Variants of: B1
Conditions: with imb2_yeast KAP104, P38217

Row | Variant | effect of a mutation on the interaction
1 | R235A;P238A;L239A | disrupting interaction
2 | R222A;P238A;L239A | disrupting interaction
3 | P238A;L239A | disrupting interaction
4 | K216A;N217A;R218A;R219A | disrupting interaction
5 | L239I | disrupting interaction strength
6 | L239D | disrupting interaction strength
7 | L239E | disrupting interaction strength
8 | L239P | disrupting interaction strength
9 | F236A | disrupting interaction
10 | R235A | disrupting interaction
11 | R218A;R219A;R222A;R226A;R229A | disrupting interaction strength

Variants of: B2
Conditions: with imb2_yeast KAP104, P38217

Row | Variant | effect of a mutation on the interaction
12 | Y529A | disrupting interaction
13 | Y532H | disrupting interaction strength
14 | Y532M | disrupting interaction strength
15 | Y532F | disrupting interaction strength
16 | R512A;R513A;R516A;R519A | disrupting interaction strength

— IntAct's records for PubMed 18532879
